{
  "source": "patent US20060153840A1",
  "target": "UNC5H2 on human umbilical artery endothelial cells (HUAEC) (human) (UniProt Q8IZJ1)",
  "sequence (Q8IZJ1 other isoform, or with tags, fused parts or gaps limits assumed)": "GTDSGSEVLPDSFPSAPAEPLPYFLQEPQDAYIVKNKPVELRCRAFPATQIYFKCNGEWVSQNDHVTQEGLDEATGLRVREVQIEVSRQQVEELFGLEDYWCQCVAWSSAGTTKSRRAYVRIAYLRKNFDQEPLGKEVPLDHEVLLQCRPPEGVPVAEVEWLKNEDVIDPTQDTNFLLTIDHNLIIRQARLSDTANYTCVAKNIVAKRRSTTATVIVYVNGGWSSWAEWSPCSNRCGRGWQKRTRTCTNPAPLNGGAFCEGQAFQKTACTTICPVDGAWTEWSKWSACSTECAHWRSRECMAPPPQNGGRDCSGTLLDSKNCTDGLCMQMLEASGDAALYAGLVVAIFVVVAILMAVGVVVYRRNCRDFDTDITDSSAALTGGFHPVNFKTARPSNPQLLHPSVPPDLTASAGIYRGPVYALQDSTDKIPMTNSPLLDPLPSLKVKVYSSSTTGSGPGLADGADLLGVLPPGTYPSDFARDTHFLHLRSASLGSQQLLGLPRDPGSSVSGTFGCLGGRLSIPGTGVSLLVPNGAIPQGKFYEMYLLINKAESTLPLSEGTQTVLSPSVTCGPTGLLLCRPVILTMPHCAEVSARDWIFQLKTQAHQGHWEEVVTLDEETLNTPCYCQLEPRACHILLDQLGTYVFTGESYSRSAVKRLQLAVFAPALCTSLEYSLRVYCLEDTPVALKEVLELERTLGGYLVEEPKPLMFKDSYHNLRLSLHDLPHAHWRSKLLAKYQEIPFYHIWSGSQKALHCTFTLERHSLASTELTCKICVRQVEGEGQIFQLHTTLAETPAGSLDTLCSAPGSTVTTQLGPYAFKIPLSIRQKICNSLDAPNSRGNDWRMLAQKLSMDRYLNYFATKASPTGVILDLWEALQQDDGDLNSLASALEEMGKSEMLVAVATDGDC",
  "assay": "cell-based or functional assay",
  "data": [
    {"substance": "Netrin-1 secreted by stably transfected 293 cells (ligand)", "values": [
      {"measurement": "decrease in transwell migration of HUAEC", "result": 40, "unit": "%"}
    ]}
  ]
}
